From PMC8017925, “Structural basis for differential recognition of phosphohistidine-containing peptides by 1-pHis and 3-pHis monoclonal antibodies” (Proceedings of the National Academy of Sciences of the …, 2021)

Tests used:
Format in all cases: binding
ACLY pHis peptide = test: BLI of pHis Fabs with phosphorylated ACLY peptide; settings: GpHAGAC motif
Experimental: (§1) Next, we turned to further analyze the peptide selectivity using BLI experiments. Nine amino acid peptide sequences from proteins known to undergo histidine phosphorylation were selected and synthesized (SI Appendix, Table S2). The biotinylated peptides ACLY, NM23, SCS, and Common-His were chemically phosphorylated using phosphoramidate (8 h at 23 °C), and affinity-purified using immobilized 1-pHis IgGs or 3-pHis IgGs, as described above. BLI signal intensity was used to assess peptide binding to the Fabs. […]
(§2) The binding kinetics of pHis Fabs with the peptides (pTza and pHis) were evaluated with an Octet RED96e (FortéBio). […] The biotinylated pTza peptides or pHis peptides (20 nM) with and without phosphoramidate treatment were coated onto these streptavidin biosensors and analyzed for their binding to varying concentrations of the pHis Fabs with an association time of 120 s and dissociation time of 200 s. […] The data were analyzed using the Octet software (FortéBio) and the rates of association and dissociation were obtained by global fitting data to the 1:1 Langmuir interaction model. […]
(§3) 1H NMR of ACLYana peptide. A mixture of 5 mM ACLYana peptide and 250 mM phosphoramidate in 20 mM d18-Hepes, pH 8.0, 50 mM NaCl in D2O was incubated at 23 °C and monitored over the course of 29 h. […]

NM23 pHis peptide = test: BLI of pHis Fabs with phosphorylated NM23 peptide
Experimental: (§4) Next, we turned to further analyze the peptide selectivity using BLI experiments. Nine amino acid peptide sequences from proteins known to undergo histidine phosphorylation were selected and synthesized (SI Appendix, Table S2). The biotinylated peptides ACLY, NM23, SCS, and Common-His were chemically phosphorylated using phosphoramidate (8 h at 23 °C), and affinity-purified using immobilized 1-pHis IgGs or 3-pHis IgGs, as described above. BLI signal intensity was used to assess peptide binding to the Fabs. SC1-1, SC50-3, SC39-4, and SC56-2 had signal intensities in 0.5 to 1 nm for the association (SI Appendix, Fig. S10), whereas SC44-8 had maximum signal (2.0 nm) with ACLYana, which has GpHAGAG motif, and a signal of 0.5 nm for ACLY and SCS peptides, which have GpHAGAC and GpHAGAI motifs, respectively. However, there was no signal with NM23 and Common-His peptides, which lack this motif (SI Appendix, Fig. S10D). […] The binding kinetics of the pHis Fabs with this set of peptides indicate that the affinity values are similar for the pHis Fabs SC50-3, SC39-4, and SC56-2, consistent with them binding in a sequence-independent manner.
(§5) The binding kinetics of pHis Fabs with the peptides (pTza and pHis) were evaluated with an Octet RED96e (FortéBio). Streptavidin-coated biosensors (FortéBio) were presoaked in buffer containing 50 mM Hepes pH 8.0, 150 mM NaCl, 0.05% Tween-20, and 0.2% BSA for 15 min. The biotinylated pTza peptides or pHis peptides (20 nM) with and without phosphoramidate treatment were coated onto these streptavidin biosensors and analyzed for their binding to varying concentrations of the pHis Fabs with an association time of 120 s and dissociation time of 200 s. The entire set of experiments was repeated three times. The data were analyzed using the Octet software (FortéBio) and the rates of association and dissociation were obtained by global fitting data to the 1:1 Langmuir interaction model. […]
(§6) Peptides used in the DSF and BLI experiments were synthesized by the Salk Peptide Synthesis Core. These peptides were N-terminally biotinylated and C-terminally amidated. They were synthesized using standard Fmoc chemistry on a Gyros Protein Technologies Tribute peptide synthesizer with UV monitoring. […]
(§7) Phosphoramidation reaction. The small molecule phosphate donor phosphoramidate was used to phosphorylate the peptides containing His (Table S2). Phosphoramidate was synthesized based on Wei and Matthew’s method (2) and stored in a desiccator. 20 nanomoles of peptides were added to one micromole of the phosphoramidate in 50 mM Hepes pH 8.0 and 150 mM NaCl buffer. […]
as §3

SCS pHis peptide = test: BLI of pHis Fabs with phosphorylated SCS peptide; settings: GpHAGAI motif
Experimental: as §1, §2, §3

Common-His pHis peptide = test: BLI of pHis Fabs with phosphorylated Common-His peptide
Experimental: as §4, §5, §6, §7, §3

[1] = BLI, phosphorylated, affinity-purified NM23 peptide, Table S7
[2] = BLI, phosphorylated, affinity-purified Common-His peptide, Table S7

- KD (NM23 pHis peptide; BLI, biotinylated NM23 peptide phosphorylated with phosphoramidate (8 h at 23 °C), affinity-purified on 1-pHis or 3-pHis IgGs (cognate isomer), Table S7): No binding
- kd (NM23 pHis peptide; [1]): No binding
- KD (Common-His pHis peptide; BLI, biotinylated Common-His peptide phosphorylated with phosphoramidate (8 h at 23 °C), affinity-purified on 1-pHis or 3-pHis IgGs (cognate isomer), Table S7): No binding
- kd (Common-His pHis peptide; [2]): No binding
B1: SC44-8: Fab of rabbit 3-pHis-specific monoclonal antibody with proclivity for GpHAGA motif (antibody, V domains shown)
VH: QSVKESGRGLVQPGGSLTLTCTASGFSIDSYGFSWVRQAPGKGLEHIGYLTAGGRAFYASWAKSRSTITRNTNENTVTLKMTSLTAADTATYFCAKLGSGNPVAIWGPGTLVTVSS
VL: QVLTQTPSFTSAAVGGTVTINCQSSQSVWRNKNLAWYQQKPGQPPKRLIYAIATLDSGVPSRFSGSGSGTQFTLTISDVQCDDAATYYCVGHYGSENDAYYAFGGGTEVVVK
- BLI signal with ACLY peptide (ACLY pHis peptide): 0.5 nm
- ka (NM23 pHis peptide; [1]): No binding
- BLI signal with NM23 peptide (NM23 pHis peptide; phosphorylated NM23, lacks GpHAGA motif): no signal
- BLI signal with SCS peptide (SCS pHis peptide): 0.5 nm
- ka (Common-His pHis peptide; [2]): No binding
- BLI signal with Common-His peptide (Common-His pHis peptide; phosphorylated Common-His, lacks GpHAGA motif): no signal
